Reference: article PMC4454178 (Molecular Biology of the Cell, 2015)

Columns and labels:
[1] = target: the molecule itself; experiment: SAXS
[2] = target: MBP-PDZ (PDZ domain of PICK1 fused to MBP) (human, UniProt Q9NRD5 22-105); experiment: ITC

Row | Kd [2] [nM] | Binder | stoichiometry N [1]
1 | – | MBP-PICK1 fusion protein (natural protein, human, UniProt Q9NRD5 1-415, looked up) MFADLDYDIEEDKLGIPTVPGKVTLQKDAQNLIGISIGGGAQYCPCLYIVQVFDNTPAALDGTVAAGDEITGVNGRSIKGKTKVEVAKMIQEVKGEVTIHYNKLQADPKQGMSLDIVLKKVKHRLVENMSSGTADALGLSRAILCNDGLVKRLEELERTAELYKGMTEHTKNLLRAFYELSQTHRAFGDVFSVIGVREPQPAASEAFVKFADAHRSIEKFGIRLLKTIKPMLTDLNTYLNKAIPDTRLTIKKYLDVKFEYLSYCLKVKEMDDEEYSCIALGEPLYRVSTGNYEYRLILRCRQEARARFSQMRKDVLEKMELLDQKHVQDIVFQLQRLVSTMSKYYNDCYAVLRDADVFPIEVDLAHTTLAYGLNQEEFTDGEEEEEEEDTAAGEPSRDTRGAAGPLDKGGSWCDS | 2
2 | ~1900 | RHWLKV [DAT C-terminal tail peptide (6 aa)] | –
